In US20240409653A1 (Genmab, published 2024):

Target: Human PD-L1 (human, UniProt Q9NZQ7 19-290)
Assay: cell-based or functional assay

Sequence of Human PD-L1 (Q9NZQ7 19-290): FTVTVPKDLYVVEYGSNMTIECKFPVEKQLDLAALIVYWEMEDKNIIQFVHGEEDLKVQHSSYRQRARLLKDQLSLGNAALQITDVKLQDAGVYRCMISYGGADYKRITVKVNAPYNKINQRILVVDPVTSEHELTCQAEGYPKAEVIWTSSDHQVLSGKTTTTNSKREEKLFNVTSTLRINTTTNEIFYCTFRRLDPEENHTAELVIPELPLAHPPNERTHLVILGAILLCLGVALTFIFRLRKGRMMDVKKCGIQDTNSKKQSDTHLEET

EC50 value [µg/ml], CD8+ T-cell expansion, donor 02: 0.00523 µg/mL
EC50 value [µg/ml], CD8+ T-cell expansion, donor 28: 0.00754 µg/mL
EC50 value [µg/ml], CD8+ T-cell expansion, donor 72: 0.00506 µg/mL
EC50 value [µg/ml], CD8+ T-cell expansion, donor 89: 0.00776 µg/mL
EC50 value [µg/ml], CD8+ T-cell expansion, mean of donors: 0.0064 µg/mL
B1: GEN1046 (bispecific antibody, human IgG1, kappa, lambda)
heavy 1: EVQLVESGGGLVQPGRSLRLSCTASGFSLNDYWMSWVRQAPGKGLEWVGYIDVGGSLYYAASVKGRFTISRDDSKSIAYLQMNSLKTEDTAVYYCARGGLTYGFDLWGQGTLVTVSSASTKGPSVFPLAPSSKSTSGGTAALGCLVKDYFPEPVTVSWNSGALTSGVHTFPAVLQSSGLYSLSSVVTVPSSSLGTQTYICNVNHKPSNTKVDKRVEPKSCDKTHTCPPCPAPEFEGGPSVFLFPPKPKDTLMISRTPEVTCVVVAVSHEDPEVKFNWYVDGVEVHNAKTKPREEQYNSTYRVVSVLTVLHQDWLNGKEYKCKVSNKALPAPIEKTISKAKGQPREPQVYTLPPSREEMTKNQVSLTCLVKGFYPSDIAVEWESNGQPENNYKTTPPVLDSDGSFFLYSRLTVDKSRWQQGNVFSCSVMHEALHNHYTQKSLSLSPG
light 1: DIVMTQSPSSLSASVGDRVTITCQASEDISSYLAWYQQKPGKAPKRLIYGASDLASGVPSRFSASGSGTDYTFTISSLQPEDIATYYCHYYATISGLGVAFGGGTKVEIKRTVAAPSVFIFPPSDEQLKSGTASVVCLLNNFYPREAKVQWKVDNALQSGNSQESVTEQDSKDSTYSLSSTLTLSKADYEKHKVYACEVTHQGLSSPVTKSFNRGEC
heavy 2: EVQLLEPGGGLVQPGGSLRLSCEASGSTFSTYAMSWVRQAPGKGLEWVSGFSGSGGFTFYADSVRGRFTISRDSSKNTLFLQMSSLRAEDTAVYYCAIPARGYNYGSFQHWGQGTLVTVSSASTKGPSVFPLAPSSKSTSGGTAALGCLVKDYFPEPVTVSWNSGALTSGVHTFPAVLQSSGLYSLSSVVTVPSSSLGTQTYICNVNHKPSNTKVDKRVEPKSCDKTHTCPPCPAPEFEGGPSVFLFPPKPKDTLMISRTPEVTCVVVAVSHEDPEVKFNWYVDGVEVHNAKTKPREEQYNSTYRVVSVLTVLHQDWLNGKEYKCKVSNKALPAPIEKTISKAKGQPREPQVYTLPPSREEMTKNQVSLTCLVKGFYPSDIAVEWESNGQPENNYKTTPPVLDSDGSFLLYSKLTVDKSRWQQGNVFSCSVMHEALHNHYTQKSLSLSPG
light 2: SYVLTQPPSVSVAPGQTARITCGGNNIGSKSVHWYQQKPGQAPVLVVYDDNDRPSGLPERFSGSNSGNTATLTISRVEAGDEADYYCQVWDSSSDHVVFGGGTKLTVLGQPKAAPSVTLFPPSSEELQANKATLVCLISDFYPGAVTVAWKADSSPVKAGVETTTPSKQSNNKYAASSYLSLTPEQWKSHRSYSCQVTHEGSTVEKTVAPTECS
